# Data taken from US20150174169.
# What was measured:
# [1] = system: AAVS1 ZFN pair (ZFN-L/ZFN-R, PPP1R12C intron 1) (synthetic construct); test: cell_activity; details: CD34+ cord blood cells, Cel-1 mismatch assay, +/-3.8
# [2] = system: IL2RG ZFN pair (ZFN-L/ZFN-R, exon 5) (synthetic construct); test: cell_activity; details: in vitro sample A
substance,measurement,setting,value
AAVS1 ZFN target site,activity,[1],23.8 % NHEJ
IL2RG ZFN target site,activity,"[2]; deep sequencing, B 61.18, G 45.60, Cel-1 assay 26.3+/-2.7 (p192)",54.6 % NHEJ
SCARB1 off-target site,activity,"[2]; B 0.70, G ns, ns in mouse",0.17 % NHEJ
SLC31A1 off-target site,activity,"[2]; B and G ns, mouse C0 0.02",0.61 % NHEJ
